Assay results: patent publication US20170115280A1

Tests used:
[1] = target: reconstituted nascent HDL (rHDL) particle made with isolated human apoA-I (human) (UniProt P02647); test: SPR (BIAcore 3000), rHDL immobilized on CM5 chip, apparent Kd, 1:1 binding with drifting baseline
[2] = target: reconstituted nascent HDL (rHDL) particle made with isolated human apoA-I (human) (UniProt P02647); test: SPR (BIAcore 3000), rHDL immobilized on CM5 chip, rPON1 500-2000 nM in flow
[3] = target: reconstituted nascent HDL (rHDL) particle made with isolated human apoA-I (human) (UniProt P02647); test: SPR, rHDL immobilized on CM5 chip

reconstituted nascent HDL (rHDL) particle made with isolated human apoA-I (human), sequence (P02647 25-267 limits assumed): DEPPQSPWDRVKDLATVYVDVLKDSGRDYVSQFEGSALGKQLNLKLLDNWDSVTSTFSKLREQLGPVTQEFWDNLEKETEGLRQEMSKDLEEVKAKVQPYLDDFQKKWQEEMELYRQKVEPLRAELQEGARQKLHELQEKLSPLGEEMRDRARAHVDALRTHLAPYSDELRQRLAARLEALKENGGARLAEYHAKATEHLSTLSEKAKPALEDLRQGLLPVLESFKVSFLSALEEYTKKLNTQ

Kd [1] | koff [2] | kon [2] | fold less binding capacity compared with rPON1 WT [3] | Substance
59 µM | 0.05 s⁻¹ | 850 M⁻¹ s⁻¹ | – | rPON1 pan E mutant (Leu9→Glu9, Tyr185→Glu185 and Tyr293→Glu293) with C-terminal His8 tag (enzyme)
– | 6e-05 s⁻¹ | – | 1000 fold | rPON1 pan K mutant (Leu9→Lys9, Tyr185→Lys185 and Tyr293→Lys293) with C-terminal His8 tag (enzyme)
0.00071 µM | 8.5e-07 s⁻¹ | 1200 M⁻¹ s⁻¹ | – | recombinant paraoxonase 1 (PON1) variant G3C9, His-tagged (rPON1 WT) (enzyme)
